In PMC11008599:

How the values were obtained:
[1] = target: aIL2_1-K8 (G4P linker), SNV-N frameworks (bovine (knob domain)); experiment: SPR; […], Biacore 8K+; […]; HBS-EP+; […]
[2] = target: aIL2_1-aIL2_1, SNV-N frameworks (bovine (knob domain)); experiment: SPR; […], Biacore 8K+; […]; HBS-EP+; […]
[3] = target: aIL2_1-aIL2_1-K8, SNV-N frameworks (bovine (knob domain)); experiment: SPR; […], Biacore 8K+; […]; HBS-EP+; […]
[4] = target: bispecific/bivalent aIL2_1-aIL2_1-K8 fusion, SNV-N stalks, GGGGP linkers; experiment: SPR; bridging SPR assay: immobilised C5, binding cycles of the knob domain fusions, then a binding cycle of IL-2
[5] = target: aIL2_1-K8 (G4P linker), BECN1 frameworks (bovine (knob domain)); experiment: SPR; multicycle kinetics, Biacore 8K+; knob domain constructs immobilised on a CM5 chip via amine coupling, IL-2 in solution; HBS-EP+; two-state binding model, only the fastest association and the slowest dissociation rate constants reported
aIL2_1-K8 (G4P linker), BECN1 frameworks (bovine (knob domain)), sequence (main, as listed by the source): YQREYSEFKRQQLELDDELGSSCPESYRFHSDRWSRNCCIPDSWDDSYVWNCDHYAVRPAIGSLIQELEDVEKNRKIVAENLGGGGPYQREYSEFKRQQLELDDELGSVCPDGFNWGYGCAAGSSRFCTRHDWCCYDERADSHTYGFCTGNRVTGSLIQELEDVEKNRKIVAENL

[6] = target: aIL2_1-aIL2_1, BECN1 frameworks (bovine (knob domain)); experiment: as above
aIL2_1-aIL2_1, BECN1 frameworks (bovine (knob domain)), sequence (main, as listed by the source): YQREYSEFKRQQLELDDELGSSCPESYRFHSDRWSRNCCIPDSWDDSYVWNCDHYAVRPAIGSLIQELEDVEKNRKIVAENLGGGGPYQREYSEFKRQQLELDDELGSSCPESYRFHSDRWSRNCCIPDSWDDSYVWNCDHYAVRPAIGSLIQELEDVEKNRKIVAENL

[7] = target: aIL2_1-aIL2_1-K8, BECN1 frameworks (bovine (knob domain)); experiment: as above
aIL2_1-aIL2_1-K8, BECN1 frameworks (bovine (knob domain)), sequence (main, as listed by the source): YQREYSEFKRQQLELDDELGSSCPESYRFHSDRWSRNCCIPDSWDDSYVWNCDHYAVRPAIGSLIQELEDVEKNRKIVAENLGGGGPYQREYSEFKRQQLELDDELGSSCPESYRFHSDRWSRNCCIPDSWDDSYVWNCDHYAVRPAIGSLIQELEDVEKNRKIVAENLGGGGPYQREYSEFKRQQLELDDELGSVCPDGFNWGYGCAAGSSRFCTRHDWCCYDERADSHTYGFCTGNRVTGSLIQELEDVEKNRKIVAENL

[8] = target: K8-K57, SNV-N frameworks (bovine (knob domain)); experiment: SPR; […], Biacore 8K+; […]; HBS-EP+ (10 mM HEPES pH 7.4, 150 mM NaCl, 3 mM EDTA, 0.005% P20); 1:1 binding model
[9] = target: aIL2_1-K8 (G4P linker), SNV-N frameworks (bovine (knob domain)); experiment: as above
[10] = target: K8-K57, BECN1 frameworks (bovine (knob domain)); experiment: SPR; multicycle kinetics, Biacore 8K+; knob domain constructs immobilised on a CM5 chip via amine coupling, C5 in solution; HBS-EP+ (10 mM HEPES pH 7.4, 150 mM NaCl, 3 mM EDTA, 0.005% P20); 1:1 binding model
[11] = target: aIL2_1-K8 (G4P linker), BECN1 frameworks (bovine (knob domain)); experiment: as above

human IL-2, sequence (P60568 21-153): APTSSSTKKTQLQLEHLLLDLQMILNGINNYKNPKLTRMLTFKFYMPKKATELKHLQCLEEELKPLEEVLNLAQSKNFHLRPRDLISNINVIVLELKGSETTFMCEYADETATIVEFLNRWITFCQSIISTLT

Substance | Kd [1] [nM] | Kd [2] [nM] | Kd [3] [nM] | increase in signal upon IL-2 binding [4] [RU] | Kd [5] [nM] | Kd [6] [nM] | Kd [7] [nM] | Kd [8] [nM] | koff [8] [s⁻¹] | kon [8] [M⁻¹ s⁻¹] | Kd [9] [nM] | koff [9] [s⁻¹] | kon [9] [M⁻¹ s⁻¹] | Kd [10] [nM] | koff [10] [s⁻¹] | kon [10] [M⁻¹ s⁻¹] | Kd [11] [nM] | koff [11] [s⁻¹] | kon [11] [M⁻¹ s⁻¹]
human IL-2 (from UniProt P60568 21-153) (natural protein) | 9 | 5.7 | 5.5 | 26 | 10 | 7.5 | 7.1 |  |  |  |  |  |  |  |  |  |  |  | 
complement component 5 (natural protein) |  |  |  |  |  |  |  | 1.18 | 1.83e-05 | 15400 | 26 | 0.00025 | 9700 | 0.9 | 2.8e-05 | 31000 | 29 | 0.00026 | 8800
